Data: patent US20240025971A1

Molecular target: SARS-CoV-2 Wuhan D614G full-length Spike protein (SARS-CoV-2) (UniProt P0DTC2)
Experiment: cell-based or functional assay

**Q.** With “Anti-Nucleocapsid (Neg Control) (antibody)” as the substance, how does the Pseudovirus Neutralization read?
**A.** The Pseudovirus Neutralization was greater than 50 µg/mL.
